Assay results from patent US20160115500A1 (University of California, published 2016).
Residue numbers refer to the chain shown, from its start. Numbers in names are those of the source.

T1: GAL4 activation domain fusion (ACT) to HAB1 (UniProt Q9CAJ0 23-511, limits assumed)
T1 construct: pACT-HAB1 fusion in yeast reporter strains; also called pACT-HAB1
T1 sequence (looked up): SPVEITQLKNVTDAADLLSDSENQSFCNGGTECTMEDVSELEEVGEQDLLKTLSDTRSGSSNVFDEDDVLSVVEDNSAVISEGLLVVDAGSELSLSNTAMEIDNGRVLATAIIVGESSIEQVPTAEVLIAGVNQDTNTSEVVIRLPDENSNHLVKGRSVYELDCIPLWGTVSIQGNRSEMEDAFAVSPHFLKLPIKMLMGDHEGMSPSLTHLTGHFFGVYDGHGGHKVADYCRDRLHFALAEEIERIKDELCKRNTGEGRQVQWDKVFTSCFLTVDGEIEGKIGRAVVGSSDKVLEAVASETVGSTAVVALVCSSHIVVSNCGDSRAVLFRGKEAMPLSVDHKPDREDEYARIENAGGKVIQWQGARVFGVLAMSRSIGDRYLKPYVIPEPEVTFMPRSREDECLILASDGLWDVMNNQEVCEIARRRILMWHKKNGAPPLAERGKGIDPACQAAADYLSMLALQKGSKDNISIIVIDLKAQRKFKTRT

B1: PYR1^K59R,A160I (receptor, not shown: small tags and cut ends)
chain: MPSELTPEERSELKNSIAEFHTYQLDPGSCSSLHAQRIHAPPELVWSIVRRFDKPQTYRHFIKSCSVEQNFEMRVGCTRDVIVISGLPANTSTERLDILDDERRVTGFSIIGGEHRLTNYKSVTTVHRFEKENRIWTVVLESYVVDMPEGNSEDDTRMFIDTVVKLNLQKLATVAEAMARNSGDGSGSQVT
notes: pBD-PYR1 fusion in yeast
B2: PYR1^K59R,A160S (receptor, not shown: small tags and cut ends)
chain: B1 chain with I160S
notes: pBD-PYR1 fusion in yeast
B3: PYR1^K59R,N167D (receptor, not shown: small tags and cut ends)
chain: B1 chain with I160A, N167D
notes: pBD-PYR1 fusion in yeast
B4: PYR1^K59R,E141Q (receptor, not shown: small tags and cut ends)
chain: B1 chain with E141Q, I160A
notes: pBD-PYR1 fusion in yeast
B5: PYR1^K59R,N167S (receptor, not shown: small tags and cut ends)
chain: B1 chain with I160A, N167S
notes: pBD-PYR1 fusion in yeast
B6: PYR1^K59R,E141L (receptor, not shown: small tags and cut ends)
chain: B1 chain with E141L, I160A
notes: pBD-PYR1 fusion in yeast
B7: PYR1^K59R,N167Q (receptor, not shown: small tags and cut ends)
chain: B1 chain with I160A, N167Q
notes: pBD-PYR1 fusion in yeast
B8: PYR1^K59R,A160T (receptor, not shown: small tags and cut ends)
chain: B1 chain with I160T
notes: pBD-PYR1 fusion in yeast
B9: PYR1^K59R,H115N (receptor)
chain: B1 chain with H115N, I160A
notes: pBD-PYR1 fusion in yeast
B10: PYR1^K59R,M158S (receptor, not shown: small tags and cut ends)
chain: B1 chain with M158S, I160A
notes: pBD-PYR1 fusion in yeast
B11: PYR1^K59R,A160V (receptor, not shown: small tags and cut ends)
chain: B1 chain with I160V
notes: pBD-PYR1 fusion in yeast
B12: PYR1^K59R,M158L (receptor, not shown: small tags and cut ends)
chain: B1 chain with M158L, I160A
notes: pBD-PYR1 fusion in yeast
B13: PYR1^K59R,N167T (receptor, not shown: small tags and cut ends)
chain: B1 chain with I160A, N167T
notes: pBD-PYR1 fusion in yeast
B14: PYR1^K59R,I110M (receptor, not shown: small tags and cut ends)
chain: B1 chain with I110M, I160A
notes: pBD-PYR1 fusion in yeast
B15: PYR1^K59R,M158A (receptor, not shown: small tags and cut ends)
chain: B1 chain with M158A, I160A
notes: pBD-PYR1 fusion in yeast
B16: PYR1^K59R,E141H (receptor, not shown: small tags and cut ends)
chain: B1 chain with E141H, I160A
notes: pBD-PYR1 fusion in yeast
B17: PYR1^K59R,A160N (receptor, not shown: small tags and cut ends)
chain: B1 chain with I160N
notes: pBD-PYR1 fusion in yeast
B18: PYR1^K59R,N167A (receptor, not shown: small tags and cut ends)
chain: B1 chain with I160A, N167A
notes: pBD-PYR1 fusion in yeast
B19: PYR1^K59R,E141F (receptor)
chain: B1 chain with E141F, I160A
notes: pBD-PYR1 fusion in yeast
B20: PYR1^K59R,N167G (receptor, not shown: small tags and cut ends)
chain: B1 chain with I160A, N167G
notes: pBD-PYR1 fusion in yeast
B21: PYR1^K59R,A160Y (receptor, not shown: small tags and cut ends)
chain: B1 chain with I160Y
notes: pBD-PYR1 fusion in yeast
B22: PYR1^K59R,T162L (receptor, not shown: small tags and cut ends)
chain: B1 chain with I160A, T162L
notes: pBD-PYR1 fusion in yeast
B23: PYR1^K59R,M158G (receptor, not shown: small tags and cut ends)
chain: B1 chain with M158G, I160A
notes: pBD-PYR1 fusion in yeast

Molecular target: T1, GAL4 activation domain fusion (ACT) to …
Assay: yeast two-hybrid, X-gal; lowest dichlobenil concentration giving signal

Binder | Threshold [µM]
B1 | 100
B2 | 100
B3 | 100
B4 | 100
B5 | 100
B6 | 100
B7 | 100
B8 | 100
B9 | 100
B10 | 100
B11 | 100
B12 | 100
B13 | 100
B14 | 100
B15 | 100
B16 | 100
B17 | 100
B18 | 100
B19 | 100
B20 | 100
B21 | 100
B22 | 100
B23 | 100
